test: soluble on expression in E. coli; label from the status in PepcDB or PDB records

Sequence	soluble on expression in E. coli
NVKQQFFPPSNTPMFYVDMWMPEGTDIRQTIKQAEKVESYIRQQDDIDFVSVSIGQGLQRFALTYQPEKSYEAYAQFQVRTTDRDNMFKLLHKLDDNLAKTFDEPTFQFKLMEFGPSPASKIEARITGPDPKVLRELAVQVEDILHTDPGARNIRHDWRERTKELVPVFNESKARRLGISKEDLSSTLQMAFGGSTFGVLRDGTHTLPIMMRLPEAERVDFESLQNVKIWSPSLQTYIPVDQIIDGVELDWSEPLIQRRDRKRTLTVLADHDVLSDDTAASLFARVQPKVMALHIPEGYEITWGGEYESSKDAQE	not soluble
MGSDKIHHHHHHMQSQELERIARQIRLRDVQAVFEAGAGHVGGEMSAIDIMTALYFRVLRIWPNDPKNPARDRFVLSKGHTACALYVTLAKRGFIPEEEISTFLQPNSRLNGHPNCNKVPGVETNTGPLGHGLPVAVGMATAAKLSGEDYHTYVMTGDGEMQEGSNWEAIMSAAQFKLNNLTLVIDHNRFQQGAAIADTNDVAPLRPKLEAFGWEVTEINGNAMAEVVPALEHRGNRPHCIVAHTNKGHGISFMQDRVDWHHKVPSKEQYEIAVKELSEAL	not soluble
MTIDRVCTIGPASNNKETLAKLINNGMKIVRLNLSHGTHESHKDIIRLVKSLDDSIKILGDVQGPKIRLGEIKGEQITLQAGDSFMLRTQPVTGSSTEASVDYEGIANDVKVGSRILMNDGEVELIVEKVSTDKIETKVKTGGNISSHKGVNLPGAIVSLPAITEKDKKDIQFLLEEDVDFIACSFVRKPSHIKEIRDFIQQYKETSPNLIAKIETMEAIENFQDICKEADGIMIARGDLGVELPYQFIPLLQKMMIQECNRTNTYVITATQMLQSMVDHSIPTRAEVTDVFQAVLDGTNAVMLSAESASGEHPVESVSTLRLVSEFAEHVKKDGPFVMKDVLELLHKSLDE	soluble
MKEKIPFYNEKEFHDMVKKTKKGTFSGWYIINKNNNSVEFSGSFNRQFKLNKPVIPVNTEYVTRKEFNEYKDSNDQRLTKIETELKSQGQRIQVVEDKVDRLTEVVMVQSQQIKTQGEAMNARMDRFESLVLKSLESIGNTLTDFGKRLDVIETRLDKIDPPKLEHHHHHH	not soluble
MKMKKKKRKMFDVFEHVLNQIVGNGVLLLRRIVIDRSKQHKHFHLIMTYKCIFVVAQHTLVDRLESDNNGEQKFQKLCFI	not soluble
MYLRPDEVARVLEKAGFTVDVVTNKTYGYRRGENYVYVNREARMGRTALIIHPRLKDRSSSLADPASDIKTCDHYQNFPLYLGGETHEHYGIPHGFSSRIALERYLNGLFGDEKTD	not soluble
MAFANLRKVLISDSLDPCCRKILQDGGLQVVEKQNLSKEELIAELQDCEGLIVRSATKVTADVINAAEKLQVVGRAGTGVDNVDLEAATRKGILVMNTPNGNSLSAAELTCGMIMCLARQIPQATASMKDGKWERKKFMGTELNGKTLGILGLGRIGREVATRMQSFGMKTIGYDPIISPEVSASFGVQQLPLEEIWPLCDFITVHTPLLPSTTGLLNDNTFAQCKKGVRVVNCARGGIVDEGALLRALQSGQCAGAALDVFTEEPPRDRALVDHENVISCPHLGASTKEAQSRCGEEIAVQFVDMVKGKSLTGVVNAQALTSAFSPHTKPWIGLAEALGTLMRAWAGSPKGTIQVITQGTSLKNAGNCLSPAVIVGLLKEASKQADVNLVNAKLLVKEAGLNVTTSHSPAAPGEQGFGECLLAVALAGAPYQAVGLVQGTTPVLQGLNGAVFRPEVPLRRDLPLLLFRTQTSDPAMLPTMIGLLAEAGVRLLSYQTSLVSDGETWHVMGISSLLPSLEAWKQHVTEAFQFHF	soluble
MPPLFHPHLVNGPFDDPGLYVDFLFERRAVLFDLGDTAPLPPRKVLRLSHIFVSHTHVDHFIGFDRVVRLCLGREKRLHLLGPPGFVDQVAARLAGYTWNLVETFPTDFTLAAAELHPDGSVHSAEFHCLAAFSRDNERRDRAAGGVLLDEEAFRVRSVFLDHGIPCLAFALEEKNHVHILKNRLREAGLPTGAWLAELKRAILGGRDDGEPFRAWWRDGGKECEAWFPLGELRERFTKTVAGQKIVYVTDAAPTPENRRLIVELAAGADYLFIEAPFLDEERERAGDRCHLTARIAGELGRDAGVARVVPFHFSPRYMGRESLLRDEVERAFRGLEHHHHHH	not soluble
MSLNLDYTTYRIICSHPFGISRSTHTYYDIVYIYISDGEYIGRGEAAPSVRYDESTNQIITHLKSIDNIDNNLNLEEGAFWCKKNSNGISSLEAALSTAWLDLWTKKNNRRISTYFNSGKNMLYTSFTIAIGDLDLIPKKIEEAKSYNILKIKLGINEQHDKNIIKLIRKETDKIIRVDANEGWDLDTGKKMCKWLADHNVEFVEQPFKAQNLGDTAKLRDVSPLPLIADENSIKSSNIPDIAHAFDGINIKLMKCGSLFEAKKMIDLARKYDMKIMLGCMVESSIGITAMSNLSPQVDFADLDGNLLIDNDPYIGVKVVDGKLKLPSGDGLGLTLNQKYRKDFGNLKEGHHHHHH	soluble
MSLLPKELLDVRRAKGRIFPKFADERDYELAEKVIEIFKKGLGKKYGNLMKQARKLENAKNFKKVRGFIRVLENHCIEKSCAFDVDSELEPRKVRMLLFEHGFVTSKKERDRVLEYVARYFSTTPETVERAMYADREEELILTKFRPLTPDNLIKLYNLSLLQTTLFNALRLTFWASDRHKEIFRSIKRLGLMYELYEDSGRLMVEVTGAATLLKMTRKYGVSFAKLIPWILRAKNWFIRAEISDFDRLYIMEIDDRIRDLFPDVEERLSYDSTLEEEFARKMQMLGYEVEREPDVVKAGKYAFIPDFAVNLGDKKVYIEIAGFWTDEYLRKKAEKIKSSSIPLILIAREDFGDGGANVKDVILFSRKIPYGEVIKALKRYKPEKKVEGDVVELENFAEVPSEYVIAGKYAVRREIFEEIKREIEVSNPSTLEDIKAILKKYGLGESAIRAFGYRVRWIGLGEAVIERTDEGHHHHHH	not soluble
MARMYRALTRDIEVTVDPYYLEEQSDPDDDRYVWGYKVVIANNSDVPVKLVNRYWHITDQNGQVDEVYGPGVVGEQPQLKPGDSYEYSSGCPLDTPSGLMFGHYEMETENGEVFNVTIPAFSLDSPGLMRVLNAAALEHHHHHH	soluble
MVSSSVARGLEDAGLKRFVPAFSGVSDQAFLGLMMSDYASYGVVELEDKQRLFRLIKSIAASVKSSDAPAPALEKPNALIDLDENDGDLLADAGVNFQLSPLANQNPKAPVPSGGGGVPPSEGEDPPKIRVVVRKRPISKKERERGDDDVVDVLAKNNTVVVNEEKVKVDLTKYLEKHAFKFDESLDENVSNEAVYQLTVGPLVRTLFRNGRASCFAYGQTGSGKTYTMSPLPIRASADIFTFMAQQQYRDISLCVSCFEIYGNKVFDLLNARKKLNILEDGKKKVVVVGLKEFGVDDVDGVKALIEESAKNRSTGSTAANADSSRSHSIMQFALKRAAPAPAGGFRRGEDAPEPRVVGKISFIDLAGSERGADTFDNNRQTRLEGAEINKSLLALKECIRALDSDARHVPFRGSKLTAVLRDSFVGDQARTVMIANISPCSSSVEHTLNTLRYADRVKELRKDKADRTPGGVTPGDDAYYAAVARAAGPGQAAAPAPERERERADLQRERDRERASDRYPSPPRQQAGAFAGGGGGGAGADGEGSAAALAERHDELMDSILLEEENLVAFHRAKLEEDMETMRQEMALLQEVDKPGSEIDHYVEQMSALLNIKRQGIQELQAKLDTFKAKLREEEALSRTVHKIRT	not soluble
MGSDKIHHHHHHMNDDFLFSDDEPDIAEEEVSEPYNILIVDDDEEIHTITKMALGEFKLDGRPLKFHSVYSGKDAIAFLQDNTNIAMMLLDVVMETDHAGLDVAQWVRETRKNRLIRIVLRTGQPGQAPEEDVIARYDIDDYKEKTELTYRKLVTLMYSCLRAYRDLNAIERNKRGLEKVINASAEVFSARSMQALCQGILEQLVALITLSDDAMYCRIDALTASSDTDDPFEIIGGTGEYEEAVGQPVHGEIDWDIVRPMQQSPQNVDFRIVDGNYYGLYKTSSSRQYLLFIRGVRDLSELDQNLLGLFVNNSSIAIDNLQATENEREAQRELLYSVGEAIEKHSIDEISHHVKRSAEMAGQLAIFSGATQEQAEALKQAASVYDIGKVSVQMELAQRADVLSIHEYEEIMQKVIQGHDYLRQTDSAVAKVAALIAQDIHERWNGSGFPSQKSAKAIDLNARILSITSHFDALRTQRNYRDAKESEDAADYLLQHSGKFFDPELVGLMLDNLDAMEKIRQRFLDKKQDTRH	not soluble

From the DeepSol protein solubility set
